Reference: article PMC2120718

Assay: flow cytometry of surface TCR, anti-CD3 epsilon UCHT1
Details: glycan lost; control: JGN transfected with wild-type CD3 gamma

Substance | expression_or_secretion
CD3 gamma: N30Q | no change
CD3 gamma: N70Q | no change
